Literature values, collected in article doi:10.1101/2023.01.28.526057v3 (bioRxiv, 2023).

Conditions: rat modeling parameter, Table S7, column PBS

## liraglutide
  t1/2 in SC: 57.02 s
